# B1: Human ZAQL-2 (human Bv8 maturation peptide) (ligand)
# chain: AVITGACDKDSQCGGGMCCAVSIWVKSIRICTPMGKLGDSCHPLTRKVPFFGRRMHHTCPCLPGLACLRTSFNRFICLAQK
# How the values were obtained:
# [1] = biological target: monoclonal antibody ZAL2-103a producible from the hybridoma ZAL2-103 (FERM BP-8431); assay: competitive EIA: unlabeled human ZAQL-2 against HRP-labeled human ZAQL-2 on ZAL2-103a (50 ng/ml) captured on anti-mouse immunoglobulin plate
# [2] = biological target: monoclonal antibody ZAL2-106a producible from the hybridoma ZAL2-106 (FERM BP-8432); assay: competitive EIA: unlabeled human ZAQL-2 against HRP-labeled human ZAQL-2 on ZAL2-106a (50 ng/ml) captured on anti-mouse immunoglobulin plate
binder,measurement,setting,value
B1,IC50,[1],0.8 nM
same,IC50,[2],3 nM

# — patent US20070014799A1
